We go through four molecules from patent US20220233667A1 (OXFORD UNIVERSITY INNOVATION, published 2022).

The assay deals with T1, PfRH5Nt: amino acids F25-K140 of PfRH5 (3D7) with C-terminal CD4d3+4, biotin acceptor peptide and His6 tags (Plasmodium falciparum (3D7)).
T1 construct: also called recombinant PfRH5Nt
T1 chain: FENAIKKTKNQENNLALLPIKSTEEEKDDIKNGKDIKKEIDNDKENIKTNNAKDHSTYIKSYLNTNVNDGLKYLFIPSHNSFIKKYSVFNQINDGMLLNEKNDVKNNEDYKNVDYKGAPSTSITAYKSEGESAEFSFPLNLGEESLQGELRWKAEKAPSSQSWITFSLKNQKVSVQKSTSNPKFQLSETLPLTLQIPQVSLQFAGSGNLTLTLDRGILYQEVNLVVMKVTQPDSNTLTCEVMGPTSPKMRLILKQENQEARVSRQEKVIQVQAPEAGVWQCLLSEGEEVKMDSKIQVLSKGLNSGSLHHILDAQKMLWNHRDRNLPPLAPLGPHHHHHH
Put plainly: ELISA on coated PfRH5Nt. (In general: An ELISA detects its analyte on a solid surface through an enzyme-linked reagent.)

B1: R5.011 (antibody, V domains shown)
VH: EVQLVQSGSDLKKPGASVKVSCKASGYTFTSYAMNWVRQAPGQGLEWVGWINTNTGNPTYAQGFTGRFVFSLDTSVSTAYLQISSLKAEDTAVYYCARESPNYYDSSGYYSGYYFDYWGQGTLVTVSS
VL: SYELTQPPSVSVAPGQTATITCGGKNIGSKSVHWYQQKPGQAPVLVVYDDSDRPSGIPERFSGSNSGNTATLTISRVEAGDEADYYCQVWDSSSDHRVFGGGTKLTVLG
notes: also called mAb11
Consider B1, for which the binding result was “no binding (tested: 1000 ng/mL mAb)”.

B2: R5.014 (antibody, V domains shown)
VH: EVQLVESGGGLVQPGRSLRLSCAASGFTFDDYAMHWVRQAPGKGLEWVSGISWNSASMDYADSVKGRFTISRDNAKNSLYLQMNSLRAEDTALYYCAKDPAPPYCGGDCYPSFDYWGQGTLVTVSS
VL: SYELTQPPSMSVAPGKTARITCGGNNIGSKSVHWYQQKPGQAPVLVIYYDSDRPSGIPERFSGSNSGNTATLTISRVEAGDEADYYCQVWDSSRDHVVFGGGTKLTVLG
notes: also called mAb14
As to B2, the binding result is given as “no binding (tested: 1000 ng/mL mAb)”.

B3: R5.016 (antibody, V domains shown)
VH: QVQLVQSGAEVKKPGASVRVSCKASGYTFTSYGISWVRQAPGQGLEWMGWISGYDGNTNYAQKLQGRVTMTTDTSTSTAYMELRSLRSDDTAVYYCARDGPQVGDFDWQVYYYYGMDVWGQGTTVTVSS
VL: AIRMTQSPSTLSASVGDRVTITCRASQSINTWLAWYQQKPGKAPNLLISKASSLESGVPSRFSGSGSGTEFTLTISSLQPDDFATYFCQQYNSYLYTFGQGTKVEIRR
notes: also called mAb16
As to B3, the binding result is given as “no binding (tested: 1000 ng/mL mAb)”.

B4: R5.010 (antibody, V domains shown)
VH: EVQLVESGGGLVQPGGSLRLSCAASGFTFSSYWMSWVRQAPGKGLEWVANIKQDGSEKYYVDSVKGRFTISGDNAKNSLYLQMNSLRAEDTAVYYCARGASGYYYYNYGMDVWGQGTRVTVSS
VL: QPVLTQPPSVSVAPGQTARITCGGNNIGIKSVHWYQQKPGQAPVLVVYDDSDRPSGIPERFSGSNSANTATLTISRVEAGDEADYFCQVWDSSSDHPGVFGGGTKLTVLG
notes: also called mAb10
As for B4, the binding result was “no binding (tested: 1000 ng/mL mAb)”.
